Experimental data: US20210054094A1 (Hoffmann-La Roche, published 2021)

B1: P1AE5708 (antibody, V domains shown)
VH: EVQLLESGGGLVQPGGSLRLSCAASGFTFSKYAMAWVRQAPGKGLEWVASISTGGVNTYYRDSVKARFTISRDNSKNTLYLQMNSLRAEDTAVYYCATHTGDYFDYWGQGTMVTVSS
VL: DIVMTQSPDSLAVSLGERATINCKSSQSVSISGINLMNWYQQKPGQQPKLLIYHASILASGVPDRFSGSGSGTDFTLTISSLQAEDVAVYYCQQTRESPLTFGQGTRLEIK
B2: P1AE5724 (antibody, V domains shown)
VH: EVQLLESGGGLVQPGGSLRLSCAASGFTFSKYAMAWVRQAPGKGLEWVASISTGGVNTYYADSVKGRFTISRDNSKNTLYLQMNSLRAEDTAVYYCATHTGDYFDYWGQGTMVTVSS
VL: DIQMTQSPSSLSASVGDRVTITCRASQSVSISGINLMNWYQQKPGKQPKLLIYHASILASGVPSRFSGSGSGTDFTLTISSLQPEDFATYYCQQTRESPLTFGQGTRLEIK
B3: P1AE5718 (antibody, V domains shown)
VH: ELQLLESGGGLVQPGGSLRLSCAASGFTFSKYAMAWVRQAPGKGLEWVASISTGGVNTYYRDSVKARFTISRDNAKNTLYLQMNSLRAEDTAVYYCATHTGDYFDYWGQGTMVTVSS
VL: DIQMTQSPSSLSASVGDRVTITCRASQSVSISGINLMNWYQQKPGKQPKLLIYHASILASGVPSRFSGSGSGTDFTLTISSLQPEDFATYYCQQTRESPLTFGQGTRLEIK
B4: P1AE5719 (antibody, V domains shown)
VH: ELQLLESGGGLVQPGGSLRLSCAASGFTFSKYAMAWVRQAPGKGLEWVASISTGGVNTYYRDSVKARFTISRDNAKNTLYLQMNSLRAEDTAVYYCATHTGDYFDYWGQGTMVTVSS
VL: DIQMTQSPSSLSASVGDRVTITCRASQSVSISGINLMNWYQQKPGQQPKLLIYHASILASGVPSRFSGSGSGTDFTLTISSLQPEDFATYYCQQTRESPLTFGQGTRLEIK
B5: P1AE5712 (antibody, V domains shown)
VH: EVQLLESGGGLVQPGGSLRLSCAASGFTFSKYAMAWVRQAPGKGLEWVASISTGGVNTYYRDSVKARFTISRDNSKNTLYLQMNSLRAEDTAVYYCATHTGDYFDYWGQGTMVTVSS
VL: DIQMTQSPSSLSASVGDRVTITCRASQSVSISGINLMNWYQQKPGKQPKLLIYHASILASGVPSRFSGSGSGTDFTLTISSLQPEDFATYYCQQTRESPLTFGQGTRLEIK
B6: P1AE5725 (antibody, V domains shown)
VH: EVQLLESGGGLVQPGGSLRLSCAASGFTFSKYAMAWVRQAPGKGLEWVASISTGGVNTYYADSVKGRFTISRDNSKNTLYLQMNSLRAEDTAVYYCATHTGDYFDYWGQGTMVTVSS
VL: DIQMTQSPSSLSASVGDRVTITCRASQSVSISGINLMNWYQQKPGQQPKLLIYHASILASGVPSRFSGSGSGTDFTLTISSLQPEDFATYYCQQTRESPLTFGQGTRLEIK
B7: P1AE5709 (antibody, V domains shown)
VH: EVQLLESGGGLVQPGGSLRLSCAASGFTFSKYAMAWVRQAPGKGLEWVASISTGGVNTYYRDSVKARFTISRDNSKNTLYLQMNSLRAEDTAVYYCATHTGDYFDYWGQGTMVTVSS
VL: EIVLTQSPGTLSLSPGERATLSCRASQSVSISGINLMNWYQQKPGQQPRLLIYHASILASGIPDRFSGSGSGTDFTLTISRLEPEDFAVYYCQQTRESPLTFGQGTRLEIK
B8: P1AE5721 (antibody, V domains shown)
VH: EVQLLESGGGLVQPGGSLRLSCAASGFTFSKYAMAWVRQAPGKGLEWVASISTGGVNTYYADSVKGRFTISRDNSKNTLYLQMNSLRAEDTAVYYCATHTGDYFDYWGQGTMVTVSS
VL: DIVMTQSPDSLAVSLGERATINCKSSQSVSISGINLMNWYQQKPGQQPKLLIYHASILASGVPDRFSGSGSGTDFTLTISSLQAEDVAVYYCQQTRESPLTFGQGTRLEIK
B9: P1AE5722 (antibody, V domains shown)
VH: EVQLLESGGGLVQPGGSLRLSCAASGFTFSKYAMAWVRQAPGKGLEWVASISTGGVNTYYADSVKGRFTISRDNSKNTLYLQMNSLRAEDTAVYYCATHTGDYFDYWGQGTMVTVSS
VL: EIVLTQSPGTLSLSPGERATLSCRASQSVSISGINLMNWYQQKPGQQPRLLIYHASILASGIPDRFSGSGSGTDFTLTISRLEPEDFAVYYCQQTRESPLTFGQGTRLEIK
B10: P1AE5715 (antibody, V domains shown)
VH: ELQLLESGGGLVQPGGSLRLSCAASGFTFSKYAMAWVRQAPGKGLEWVASISTGGVNTYYRDSVKARFTISRDNAKNTLYLQMNSLRAEDTAVYYCATHTGDYFDYWGQGTMVTVSS
VL: DIVMTQSPDSLAVSLGERATINCKSSQSVSISGINLMNWYQQKPGQQPKLLIYHASILASGVPDRFSGSGSGTDFTLTISSLQAEDVAVYYCQQTRESPLTFGQGTRLEIK
B11: P1AE5723 (antibody, V domains shown)
VH: EVQLLESGGGLVQPGGSLRLSCAASGFTFSKYAMAWVRQAPGKGLEWVASISTGGVNTYYADSVKGRFTISRDNSKNTLYLQMNSLRAEDTAVYYCATHTGDYFDYWGQGTMVTVSS
VL: EIVLTQSPGTLSLSPGERATLSCRASQSVSISGINLMNWYQQKPGQQPKLLIYHASILASGIPDRFSGSGSGTDFTLTISRLEPEDFAVYYCQQTRESPLTFGQGTRLEIK
B12: P1AE5720 (antibody, V domains shown)
VH: EVQLLESGGGLVQPGGSLRLSCAASGFTFSKYAMAWVRQAPGKGLEWVASISTGGVNTYYADSVKGRFTISRDNSKNTLYLQMNSLRAEDTAVYYCATHTGDYFDYWGQGTMVTVSS
VL: DIVMTQSPDSLAVSLGERATINCRASQSVSISGINLMNWYQQKPGQQPKLLIYHASILASGVPDRFSGSGSGTDFTLTISSLQAEDVAVYYCQQTRESPLTFGQGTRLEIK
B13: P1AE5717 (antibody, V domains shown)
VH: ELQLLESGGGLVQPGGSLRLSCAASGFTFSKYAMAWVRQAPGKGLEWVASISTGGVNTYYRDSVKARFTISRDNAKNTLYLQMNSLRAEDTAVYYCATHTGDYFDYWGQGTMVTVSS
VL: EIVLTQSPGTLSLSPGERATLSCRASQSVSISGINLMNWYQQKPGQQPKLLIYHASILASGIPDRFSGSGSGTDFTLTISRLEPEDFAVYYCQQTRESPLTFGQGTRLEIK
B14: P1AE5713 (antibody, V domains shown)
VH: EVQLLESGGGLVQPGGSLRLSCAASGFTFSKYAMAWVRQAPGKGLEWVASISTGGVNTYYRDSVKARFTISRDNSKNTLYLQMNSLRAEDTAVYYCATHTGDYFDYWGQGTMVTVSS
VL: DIQMTQSPSSLSASVGDRVTITCRASQSVSISGINLMNWYQQKPGQQPKLLIYHASILASGVPSRFSGSGSGTDFTLTISSLQPEDFATYYCQQTRESPLTFGQGTRLEIK
B15: P1AE5727 (antibody, V domains shown)
VH: ELQLLESGGGLVQPGGSLRLSCAASGFTFSKYAMAWVRQAPGKGLEWVASISTGGVNTYYADSVKGRFTISRDNAKNTLYLQMNSLRAEDTAVYYCATHTGDYFDYWGQGTMVTVSS
VL: DIVMTQSPDSLAVSLGERATINCKSSQSVSISGINLMNWYQQKPGQQPKLLIYHASILASGVPDRFSGSGSGTDFTLTISSLQAEDVAVYYCQQTRESPLTFGQGTRLEIK
B16: P1AE5728 (antibody, V domains shown)
VH: ELQLLESGGGLVQPGGSLRLSCAASGFTFSKYAMAWVRQAPGKGLEWVASISTGGVNTYYADSVKGRFTISRDNAKNTLYLQMNSLRAEDTAVYYCATHTGDYFDYWGQGTMVTVSS
VL: EIVLTQSPGTLSLSPGERATLSCRASQSVSISGINLMNWYQQKPGQQPRLLIYHASILASGIPDRFSGSGSGTDFTLTISRLEPEDFAVYYCQQTRESPLTFGQGTRLEIK
B17: P1AE5729 (antibody, V domains shown)
VH: ELQLLESGGGLVQPGGSLRLSCAASGFTFSKYAMAWVRQAPGKGLEWVASISTGGVNTYYADSVKGRFTISRDNAKNTLYLQMNSLRAEDTAVYYCATHTGDYFDYWGQGTMVTVSS
VL: EIVLTQSPGTLSLSPGERATLSCRASQSVSISGINLMNWYQQKPGQQPKLLIYHASILASGIPDRFSGSGSGTDFTLTISRLEPEDFAVYYCQQTRESPLTFGQGTRLEIK
B18: P1AE5714 (antibody, V domains shown)
VH: ELQLLESGGGLVQPGGSLRLSCAASGFTFSKYAMAWVRQAPGKGLEWVASISTGGVNTYYRDSVKARFTISRDNAKNTLYLQMNSLRAEDTAVYYCATHTGDYFDYWGQGTMVTVSS
VL: DIVMTQSPDSLAVSLGERATINCRASQSVSISGINLMNWYQQKPGQQPKLLIYHASILASGVPDRFSGSGSGTDFTLTISSLQAEDVAVYYCQQTRESPLTFGQGTRLEIK
B19: P1AE5710 (antibody, V domains shown)
VH: EVQLLESGGGLVQPGGSLRLSCAASGFTFSKYAMAWVRQAPGKGLEWVASISTGGVNTYYRDSVKARFTISRDNSKNTLYLQMNSLRAEDTAVYYCATHTGDYFDYWGQGTMVTVSS
VL: EIVLTQSPGTLSLSPGERATLSCRASQSVSISGINLMNWYQQKPGQQPKLLIYHASILASGIPDRFSGSGSGTDFTLTISRLEPEDFAVYYCQQTRESPLTFGQGTRLEIK
B20: P1AE5726 (antibody, V domains shown)
VH: ELQLLESGGGLVQPGGSLRLSCAASGFTFSKYAMAWVRQAPGKGLEWVASISTGGVNTYYADSVKGRFTISRDNAKNTLYLQMNSLRAEDTAVYYCATHTGDYFDYWGQGTMVTVSS
VL: DIVMTQSPDSLAVSLGERATINCRASQSVSISGINLMNWYQQKPGQQPKLLIYHASILASGVPDRFSGSGSGTDFTLTISSLQAEDVAVYYCQQTRESPLTFGQGTRLEIK
B21: P1AE5716 (antibody, V domains shown)
VH: ELQLLESGGGLVQPGGSLRLSCAASGFTFSKYAMAWVRQAPGKGLEWVASISTGGVNTYYRDSVKARFTISRDNAKNTLYLQMNSLRAEDTAVYYCATHTGDYFDYWGQGTMVTVSS
VL: EIVLTQSPGTLSLSPGERATLSCRASQSVSISGINLMNWYQQKPGQQPRLLIYHASILASGIPDRFSGSGSGTDFTLTISRLEPEDFAVYYCQQTRESPLTFGQGTRLEIK

What follows are binders tested against human GPRC5D (human, UniProt Q9NZD1 1-345) (assay: cell-based or functional assay).
Chain of human GPRC5D (Q9NZD1 whole entry): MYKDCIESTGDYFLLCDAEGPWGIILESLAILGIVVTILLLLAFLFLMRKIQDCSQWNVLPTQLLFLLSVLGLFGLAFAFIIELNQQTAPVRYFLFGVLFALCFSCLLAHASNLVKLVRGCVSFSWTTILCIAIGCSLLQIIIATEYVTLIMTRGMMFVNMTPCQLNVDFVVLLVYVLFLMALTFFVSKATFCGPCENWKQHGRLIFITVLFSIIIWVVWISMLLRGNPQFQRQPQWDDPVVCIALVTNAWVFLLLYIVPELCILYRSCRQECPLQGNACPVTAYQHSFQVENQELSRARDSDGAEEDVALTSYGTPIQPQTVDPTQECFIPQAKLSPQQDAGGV

**Q.** With B1 as the binder, how does the “CAR-J2 EC50 (PGLALA-CAR-J activation, L363 target cells)” value (“CAR-J2 EC50” below) read?
**A.** Its value is 456 ng/mL.

**Q.** Which “CAR-J2 EC50” value does the source give for B2 here?
**A.** Its value is 3.6 ng/mL.

**Q.** With B3 as the binder, how does the “CAR-J2 EC50” value read?
**A.** Its value is 105 ng/mL.

**Q.** How did the “CAR-J2 EC50” value turn out when B4 was run?
**A.** Its value is 2.8 ng/mL.

**Q.** Which “CAR-J2 EC50” value does the source give for B5 here?
**A.** The value was 16.1 ng/mL.

**Q.** Which “CAR-J2 EC50” value does the source give for B6 here?
**A.** Its value is 10.9 ng/mL.

**Q.** For B7, which “CAR-J2 EC50” value is on record?
**A.** Its value is 59.4 ng/mL.

**Q.** How did the “CAR-J2 EC50” value turn out when B8 was run?
**A.** The value was 25 ng/mL.

**Q.** Which “CAR-J2 EC50” value does the source give for B9 here?
**A.** Its value is 4.6 ng/mL.

**Q.** How did the “CAR-J2 EC50” value turn out when B10 was run?
**A.** The value was 3.6 ng/mL.

**Q.** How did the “CAR-J2 EC50” value turn out when B11 was run?
**A.** Its value is 3.7 ng/mL.

**Q.** B12 was tested. Which “CAR-J2 EC50” value did it give?
**A.** Its value is 6.3 ng/mL.

**Q.** B13 was tested. Which “CAR-J2 EC50” value did it give?
**A.** Its value is 79.9 ng/mL.

**Q.** How did the “CAR-J2 EC50” value turn out when B14 was run?
**A.** The value was 76.9 ng/mL.

**Q.** With B15 as the binder, how does the “CAR-J2 EC50” value read?
**A.** Its value is 6.3 ng/mL.

**Q.** With B16 as the binder, how does the “CAR-J2 EC50” value read?
**A.** Its value is 5.6 ng/mL.

**Q.** Which “CAR-J2 EC50” value does the source give for B17 here?
**A.** The value was 61.3 ng/mL.

**Q.** How did the “CAR-J2 EC50” value turn out when B18 was run?
**A.** The value was 5.5 ng/mL.

**Q.** Which “CAR-J2 EC50” value does the source give for B19 here?
**A.** The value was 3.5 ng/mL.

**Q.** For B20, which “CAR-J2 EC50” value is on record?
**A.** The value was 37.8 ng/mL.

**Q.** How did the “CAR-J2 EC50” value turn out when B21 was run?
**A.** The value was 3.3 ng/mL.
